Measured values published in PMC12719032, “Structural and biophysical insights into RomR, MglB, and MglC interactions involved in regulating cell polarity in Myxococcus xanthus” (The Journal of Biological Chemistry, 2025).

B1: MglC (mutual gliding-motility protein C) (natural protein, M. xanthus, UniProt Q1D0B6 1-120, looked up)
chain: MSFRTHLESVVNQVEGALACSVMGFDGISVDTFQKDESAELDLNGAWVEYANLLTQLRNAAETLKTGTVSEVSVNSEKVLTVMRLVSPDYFLVLALHADGNFGKGRYVLRVTAPKVRAEL
notes: MglC of Myxococcus xanthus (DSM no. 16526, type strain), Uniprot ID Q1D0B6; Homodimer by ASEC and SEC-SAXS; source: E. coli Rosetta (DE3), purified (Ni-NTA, SEC)
B2: RomR^371-420 (C-terminal helix of RomR, residues 371-420) (domain or fragment, M. xanthus, UniProt Q1D3Z1 371-420, looked up)
chain: DGGEALLREALSKASREVIEKIAWEVVPQLAETIIREELERLIKDRETQH
notes: synthetic gene from Invitrogen, cloned in pET-Duet-A with a TEV site; no tag cleavage is described; Trimer by SEC-SAXS; also called RomR C-terminal helix; helical domain of RomR; source: E. coli Rosetta (DE3), purified (Ni-NTA, SEC); not shown: His tag, N-terminal, kept

Columns and labels:
[1] = molecular target: RomR^327-420 (C-terminal region of RomR, residues 327-420) (M. xanthus); assay: BLI; Octet RED 96; RomR^327-420/RomR^371-420 immobilised on AR2G sensors by EDC/NHS; MglC in solution; 20 mM HEPES pH 8.0, 150 mM NaCl, 10% glycerol; 1:1 binding model
[2] = molecular target: B2; assay: ITC; MicroCal Auto-iTC200; 50 μM RomR^327-420/RomR^371-420 in the cell titrated with 500 μM MglC; 30 injections; one-site model; triplicate; conditions: both partners purified
[3] = molecular target: the molecule itself; assay: SEC-SAXS; BM29, ESRF; Advance BioSEC 300 column; 20 mM Hepes pH 8.0, 150 mM NaCl, 10% glycerol; Mw from Porod volume, fits of models to the scattering data
[4] = molecular target: RomR^327-420 (C-terminal region of RomR, residues 327-420) (M. xanthus); assay: ITC; MicroCal Auto-iTC200; 50 μM RomR^327-420/RomR^371-420 in the cell titrated with 500 μM MglC; 30 injections; one-site model; triplicate
[5] = molecular target: T1, MglB-MglC complex (preformed) (M. xanthus, UniProt Q1DB03 1-159; Q1D0B6 1-120); assay: ITC; MglB and MglC premixed 2:1; 25 μM of the complex in the cell titrated with 300 μM RomR^371-420; one-site model; triplicate; conditions: both partners purified
T1 construct: MglB of Myxococcus xanthus, Uniprot ID Q1DB03; as m7; MglC of Myxococcus xanthus, Uniprot ID Q1D0B6; as m1; also called MglBC; source: purified proteins from E. coli Rosetta (DE3), MglB and MglC premixed in a 2:1 ratio; copies: 4 + 2
T1 sequence (looked up) 1: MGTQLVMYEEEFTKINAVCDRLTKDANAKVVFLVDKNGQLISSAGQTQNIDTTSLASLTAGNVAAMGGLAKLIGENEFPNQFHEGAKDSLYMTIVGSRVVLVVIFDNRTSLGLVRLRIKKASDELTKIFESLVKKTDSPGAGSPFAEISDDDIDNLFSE
T1 sequence (looked up) 2: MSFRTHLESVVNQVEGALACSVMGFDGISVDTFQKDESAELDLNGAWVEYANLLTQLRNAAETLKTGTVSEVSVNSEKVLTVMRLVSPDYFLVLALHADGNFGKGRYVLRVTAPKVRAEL

[6] = molecular target: B1; assay: ITC; MicroCal Auto-iTC200; 50 μM RomR^327-420/RomR^371-420 in the cell titrated with 500 μM MglC; 30 injections; one-site model; triplicate; conditions: both partners purified
[7] = molecular target: B1; assay: BLI; Octet RED 96; RomR^327-420/RomR^371-420 immobilised on AR2G sensors by EDC/NHS; MglC in solution; 20 mM HEPES pH 8.0, 150 mM NaCl, 10% glycerol; 1:1 binding model; conditions: both partners purified
[8] = molecular target: T1, MglB-MglC complex (preformed); assay: BLI; Octet RED 96; RomR^371-420 immobilised on AR2G sensors by EDC/NHS; MglB-MglC complex in solution; 20 mM HEPES pH 8.0, 150 mM NaCl, 10% glycerol; 2:1 (heterogeneous ligand) model and steady state analysis; conditions: both partners purified

Row | Binder | Kd [1] | koff [1] | kon [1] | dH [2] | stoichiometry N [2] | stoichiometry N [3] | Kd [4] | stoichiometry N [4] | Kd [5] | dH [5] | Kd [6] | Kd [7] | koff [7] | kon [7] | Kd [8]
1 | B1 | 5.5 nM | 0.000805 s⁻¹ | 146000 M⁻¹ s⁻¹ | -2.59 kcal/mol | 0.65 | 2 | 4.2 nM | 0.67 |  |  |  |  |  |  | 
2 | B2 |  |  |  |  |  | 3 |  |  | ~150 nM | -6.07 kcal/mol | 2.6 nM | 2.8 nM | 0.000652 s⁻¹ | 228000 M⁻¹ s⁻¹ | 280 nM
